Biological target: T1, IclR (XyrR, XynR homolog) (Serratia sp. ATCC 39006, UniProt A0A2I5T4I6 1-255)
T1 sequence: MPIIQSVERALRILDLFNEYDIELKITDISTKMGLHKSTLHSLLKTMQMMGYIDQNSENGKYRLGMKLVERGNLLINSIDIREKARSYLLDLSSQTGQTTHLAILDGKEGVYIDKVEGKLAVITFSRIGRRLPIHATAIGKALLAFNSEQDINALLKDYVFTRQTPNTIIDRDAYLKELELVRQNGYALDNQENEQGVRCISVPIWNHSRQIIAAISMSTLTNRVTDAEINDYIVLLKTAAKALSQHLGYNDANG
Experiment: EMSA; complete shift at 0.8 uM IclR (stated protein:DNA 32:1; Methods state probe 5 nM); 10 mM Tris-HCl pH 8, 5 mM DTT, 50 mM KCl, 1 mM MgCl2, 10% glycerol, 0.1% Triton X-100, 30 min at 20 C; 5 nM probe
Settings: protein: recombinant; tags: 6xHis (pQE80); chain copies: 2; label: Cy5 on LUEGO strand (S13); three strands: S15 (long) pairs with S13 followed by S14; nick between S13 and S14; blunt

B1: yagE promoter LUEGO probe (dsDNA)
DNA 1: CACCACAAATTGCAGTGTTAGTATCATTTCGTTAATGTAGAACTTAGTTCTATAATATAAAACAAAATATCAATGAAGATCGACTGACACATATCGATTGTTGTGA
DNA 2: TCACAACAATCGATATGTGTCAGTCGATCTTCATTGATATTTTGTTTTATATTATAGAACTAAGTTCTACATTAACGAAATGATACTAACACTGCAATTTGTGGTGCCAGACCAGGGCAC
DNA 3: GTGCCCTGGTCTGG
  binding result: binds

Reference: publication PMC11778176, “The IclR-family transcriptional regulator XyrR controls flotation, motility, antibiotic production and virulence in Serratia sp. ATCC 39006”
